The values below come from publication PMC5461814.

Assay [1] concerns the target Dityrosine cross-linked Aβ42 dimer [Aβ(M1-42)]DiY. Description: SEC.
Assay [2] has the same target. Nature of the assay: centrifugation with thioflavin T read-out.

Take “Dityrosine cross-linked Aβ42 dimer [Aβ(M1-42)]DiY (peptide)”: the decrease of the dimer peak at t = max in assay [1] was found to be 40%. The ThT signal of the end-stage sample removed by centrifugation in assay [2] came to 80%.
